Experiment [1] concerns the target T1, Human CD32A 131H extracellular domain, 6xHis_Flag tagged (human, UniProt P12318 34-217).
T1 construct: Used unlabelled as the analyte in Biacore; also called Hu CD32A_131His
T1 sequence: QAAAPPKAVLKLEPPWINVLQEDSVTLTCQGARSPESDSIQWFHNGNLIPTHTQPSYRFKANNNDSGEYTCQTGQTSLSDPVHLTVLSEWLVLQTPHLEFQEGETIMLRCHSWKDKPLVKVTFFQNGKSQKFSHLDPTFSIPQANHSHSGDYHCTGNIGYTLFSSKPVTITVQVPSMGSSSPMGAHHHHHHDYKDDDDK
The experiment is described as follows: HTRF epitope competition; competitor IV.3 IgG on biotinylated human CD32A 131H. A general note: In TR-FRET formats the signal depends on donor and acceptor labels being close together.

The target of experiment [2] is T1, Human CD32A 131H extracellular domain, …. The experiment is described as follows: HTRF epitope competition: sample IgG titrated against binding of mouse IV.3 IgG to biotinylated human CD32A 131H. The protocol: Subsequently, a potential […] site was removed in VL CDR1 (N28L) to reduce the risk of chemical modification during manufacture.
5 μl is added to the assay plate (384 black, shallow well, Costar, 3676), to give a final concentration of 2.0 nM. […] 5 μl of each IgG sample is transferred to the assay plate using a MiniTrak™ (Perkin Elmer). […] Assay plates were incubated for 3 hours at room temperature prior to reading time resolved fluorescence at 620 nm and 665 nm emission wavelengths using an EnVision plate reader (Perkin Elmer).

For experiment [3], the target named is T2, human FcγRIIA 131R on blood cells of 131R/R donors (human, UniProt P12318 34-317).
T2 sequence: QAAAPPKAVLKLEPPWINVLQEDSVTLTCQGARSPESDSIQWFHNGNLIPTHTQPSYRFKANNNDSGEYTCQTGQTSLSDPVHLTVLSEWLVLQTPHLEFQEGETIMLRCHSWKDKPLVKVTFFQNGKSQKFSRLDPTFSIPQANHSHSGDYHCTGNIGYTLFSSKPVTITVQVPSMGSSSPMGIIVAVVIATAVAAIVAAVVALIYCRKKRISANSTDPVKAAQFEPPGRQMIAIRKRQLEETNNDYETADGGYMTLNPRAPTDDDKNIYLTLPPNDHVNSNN
Nature of the experiment: cell-based or functional assay.

Experiment [4] has as its target T3, human FcγRIIA 131H on blood cells of 131H/H donors (human, UniProt P12318 34-317).
T3 sequence (looked up): T2 sequence with R134H
Nature of the experiment: cell-based or functional assay.

Experiment [5] deals with T2, human FcγRIIA 131R on blood cells of …. Nature of the experiment: cell-based or functional assay. The source holds these as a separate data set.
The target of experiment [6] is T4, cynomolgus CD32A version 3, 6xHis tagged (cynomolgus monkey).
T4 construct: also called Cyno CD32A; cyno CD32A (version 3)
T4 chain: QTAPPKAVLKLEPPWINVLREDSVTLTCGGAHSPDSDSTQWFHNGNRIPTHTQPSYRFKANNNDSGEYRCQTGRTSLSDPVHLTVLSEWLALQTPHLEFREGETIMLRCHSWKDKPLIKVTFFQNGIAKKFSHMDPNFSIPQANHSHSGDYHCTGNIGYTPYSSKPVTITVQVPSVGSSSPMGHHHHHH
Nature of the experiment: Biacore; IgG1-TM captured on a Protein G chip, CD32A as analyte, 1:1 Langmuir fit, average of two experiments.

Experiment [7] concerns the target T5, Human CD32A 131R extracellular domain, 6xHis_Flag tagged (human, UniProt P12318 34-217).
T5 construct: also called Hu CD32A_131Arg; human CD32A_131 Arg
T5 chain: T1 sequence with H134R
Described as above.

The target in experiment [8] is T1, Human CD32A 131H extracellular domain, …. Described as above.
The target of experiment [9] is cynomolgus monkey FcγRIIA on blood cells (cynomolgus monkey). Nature of the experiment: cell-based or functional assay.
In experiment [10] the target is T3, human FcγRIIA 131H on blood cells of …. Nature of the experiment: cell-based or functional assay. The source holds these as a separate data set.

Where a chain is given by its changes, count along the chain named. In names and notes the source's numbering stands.

B1: fully humanized IV.3 IgG1 (VH and VL fully humanized, before Y36F and N28L) (antibody)
chain 1: QVQLVQSGAEVKKPGASVKVSCKASGYTFTNYGMNWVRQAPGQRLEWMGWLNTYTGESIYPDDFKGRVTITRDTSASTAYMELSSLRSEDTAVYYCARGDYGYDDPLDYWGQGTLVTVSS
chain 2: DIVMTQSPLSLPVTPGEPASISCRSSKSLLHTNGNTYLHWYLQKPGQSPQLLIYRMSVLASGVPDRFSGSGSGTDFTLKISRVEAEDVGVYYCMQHLEYPLTFGQGTKLEIK
For the molecule B1, the “fold loss of potency in the IV.3 epitope competition assay (the next sentence compares with the mouse IgG)” value in experiment [1] turned out to be 10 fold.

B2: chimeric IV.3 (human IgG1-TM) (antibody, V domains shown)
VH: QIQLVQSGPELKKPGETVKISCKASGYTFTNYGMNWVKQAPGKGLKWMGWLNTYTGESIYPDDFKGRFAFSSETSASTAYLQINNLKNEDMATYFCARGDYGYDDPLDYWGQGTSVTVSS
VL: DIVMTQAAPSVPVTPGESVSISCRSSKSLLHTNGNTYLHWFLQRPGQSPQLLIYRMSVLASGVPDRFSGSGSGTAFTLSISRVEAEDVGVFYCMQHLEYPLTFGAGTKLELK
notes: also called parent IV.3 chimeric Ab; chimeric IV.3 antibody
Consider B2, for which the “IC50 (read off the curve)” value in experiment [2] was about 2 nM. Also, the “EC50 of FcγRIIA internalization from the monocyte surface (whole blood FACS assay)” value in [3] was 0.2 nM; in experiment [4] it was 0.19 nM. Also, the “IC50 of the loss of surface FcγRIIA (M.F.I of IV.3-Alexa 647) on monocytes, whole blood, 2 h at 37 °C” value was 0.198 nM in experiment [5] and 0.191 nM in [10]. The Kd (as a rule, a measure of binding affinity in units of concentration) was 44.1 nM in experiment [6], 0.22 nM in experiment [7] and 0.22 nM in experiment [8]. For the same molecule, the koff – broadly, the first-order rate constant of dissociation – amounted to 0.204 s⁻¹ in experiment [6], 0.00129 s⁻¹ in experiment [7] and 0.000681 s⁻¹ in experiment [8]. Besides, the results for the kon in experiment [6], in [7] and in experiment [8] were 4.63e+06 M⁻¹ s⁻¹, 5.95e+06 M⁻¹ s⁻¹ and 3.03e+06 M⁻¹ s⁻¹, respectively. Also, the “IC50 of the loss of surface FcγRIIA (M.F.I of IV.3-Alexa 647) on cynomolgus monocytes, whole blood, 2 h at 37 °C” value in [9] turned out to be 7.82 nM.

The record behind these values is patent publication US20260125478A1 (VIELA BIO, published 2026).
